From the supplement of paper PMC9170038

Test system: MS2 coat protein
Experiment: apparent KD of MS2 coat protein; designed switch direction (-1 OFF switch, 1 ON switch): -1; higher = weaker reporter binding
Outline: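 Stalled E. coli RNA polymerase transcribed designed RNA switches on Illumina chips, which were then titrated with SNAP-549-labelled MS2 coat protein, doubling from 0.7 or 1.5 nM to 3 µM. Steps lasted from 0.8–1.5 h at the lowest concentration to 10–20 min at the highest. The apparent KD is each design's median over clusters of curve-fitted normalised fluorescence.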

[1] = Eterna round: R95, input ligand: FMN 200 uM
[2] = Eterna round: R95, input ligand: microRNA oligo, concentration not stated
[3] = Eterna round: R95, input ligand: none
[4] = input ligand: microRNA oligo, concentration not stated

| Sequence | apparent KD of MS2 coat protein [1] | apparent KD of MS2 coat protein [2] | apparent KD of MS2 coat protein [3] | apparent KD of MS2 coat protein (input ligand: FMN 200 uM) | apparent KD of MS2 coat protein (input ligand: none) | apparent KD of MS2 coat protein [4] |
| --- | --- | --- | --- | --- | --- | --- |
| ACAAGCUUUUUGCAUCAAGCAUUAAAGUCUGUGAUCGUAACAUGAGGAUCACCCAUGUAAGUUUUAUGUCGUCUUAU [JR_SV3TOV2_Sub097] (puzzle: Sensor v3, turn-off variant 2) | 39.7 nM | 48.3 nM | 41.1 nM |  |  |  |
| GGUCCACAUGAGGAUCACCCAUGUUAGGAUAUCUCGCCCGAGUCCAUAUGGGCCGGGCAGAGAAGGAAUGUGAA [Vevequbi] (puzzle: Exclusion 1) |  | 17.4 nM |  |  |  |  |
| GGUACUAACACGGAAGUGUUAGUACUAUAAGCUUGUGUUACAUGAGGAUCACCCAUGUCCUCAUAAGCUCGUCUUAU [Mat - Sensor v3 - Turn-off var 2 - D75] (puzzle: Sensor v3, turn-off variant 2) | 93.5 nM | 38.1 nM | 90.7 nM |  |  |  |
| CCAUGUUAGCAGGAUAUGCAAUUAUUCUUUUAAGCAGAAGGGCUUACAUGAGGAUCACCCAUGUAACAUUUCAU [JR_E6_Sub081] (puzzle: Exclusion 6) |  | 17.3 nM |  |  |  |  |
| ACUUGCUUUUUGCUCGUCUUAUUUUUGUUGACGUUCUAUACAUGAGGAUCACCCAUGUUUUGUUCCUUGUGCUGGUA [JR_SV3TOV2_Sub073] (puzzle: Sensor v3, turn-off variant 2) | 169 nM | 183 nM | 166 nM |  |  |  |
| UCCUGACAUGAGGAUCACCCAUGUGAGGAUAUGUGGUUCGGGUCAACUCCCGUUCCGUGCAGAAGGCACAGGGC [EX1 A.29] (Eterna round: R97, puzzle: Exclusion 1) |  |  |  | 26.4 nM | 16.2 nM |  |
| CCCGUCGAUGUAGGAUAUGCCCGGGUCUCCCGGGCAGAAGGACAUGAGGAUCACCCAUGUUCGUGAGGAUCACCCAUGAAUGGG [Double but mutated MS2] (Eterna round: R96, puzzle: Exclusion NG 1) |  |  |  | 15 nM | 19.4 nM | 13 nM |
| CUCUCUCAUGUGAGGAUAUCGAGGCAGUCCGCAAACGAGAAGGUACAUGAGGAUCACCCAUGUCAACAGUAAUG [BmEX4 C.8] (Eterna round: R97, puzzle: Brourd's mod of Exclusion 4) |  |  |  | 143 nM | 33 nM |  |
| AGUAGUAGUAUCCGAUCUUACAUGAGGAUCACCCAUGUUUCUAGACGUGCACGCGAUGCUCGUCAGACUACCAGAUG [salish99_TOv1_r3_053] (puzzle: Sensor v3, turn-off variant 1) | 128 nM | 173 nM | 174 nM |  |  |  |
| CCAUCGUGUGUGAGGAUAUGCUGGACCUUGGUUCAGCAGAAGGCACAUGAGGAUCACCCAUGUGAAUACGGUGG [Mat - Exclusion 4 - JL Mod - D90] (puzzle: Brourd's mod of Exclusion 4) |  | 16.1 nM |  |  |  |  |
| UAAGUGUGAGGAUAUGGUAAAGAUAAGAUGAUGAAAGAACUCCAGAAGGCACAUGAGGAUCACCCAUGUAGAUG [JL-ex4-2.11 Jieux mod] (puzzle: Exclusion 4) |  | 35.3 nM |  |  |  |  |
| GACUCAAUCCGAGGAUAUUGCCAGCGCUGCUAUCACAUGAGGAUCACCCAUGUAUCCUCGGCUUUCGAGAAGGCGGAUUGAGCG [Eternabot solution 35] (Eterna round: R96, puzzle: Exclusion NG 2) |  |  |  | 132 nM | 49.9 nM | 46.8 nM |
| AUAAAACAUGAGGAUCACCCAUGUCAGGAUAUACGAUUCCACCCUAACUGCGUGGAACGUAGAAGGGACAUAGG [Exclusion 1 (MOD6 Esqu)] (Eterna round: R97, puzzle: Exclusion 1) |  |  |  | 62.7 nM | 76.4 nM |  |
| AGCGCCAUCGUGAGAUGGCGUAUUACAUGAGGAUCACCCAUGUAGGAUAUCGAUUGCUUUGCAGUCGAGAAGGGCAUGUCCUAG [JL ENG3 3.80 Mod H] (Eterna round: R96, puzzle: Exclusion NG 3) |  |  |  |  |  | 25 nM |
| UUUAGUUUAGGAUAUGUAGACAUUAACAUGAGGAUCACCCAUGUAGAUCCUGAAUUGGCUACAGAAGGAAGCAUUU [Mod of Brourd 11 - Jieux - Exclusion 5] (Eterna round: R97, puzzle: Exclusion 5) |  |  |  | 168 nM | 354 nM |  |
| GUUGUUUAUGUAGGAUAUGCAAGGCGAGCCUAAGCAGAAGGACAUGAGGAUCACCCAUGUAUUGCGGUCUGCGUUCAGAUCGCU [salish99_ExNG1_r4_015] (Eterna round: R96, puzzle: Exclusion NG 1) |  |  |  | 164 nM | 25.9 nM | 17.3 nM |
| CUCAGACAUGAGGAUCACCCAUGUGAGGAUAUGAUGCGAUCGUCGAAAGACGAUAGCAUCAGAAGGCACAAAUG [Fiskers Ex 1 - 24] (puzzle: Exclusion 1) |  | 71.2 nM |  |  |  |  |

| Sequence | apparent KD of MS2 coat protein [1] | apparent KD of MS2 coat protein [2] | apparent KD of MS2 coat protein [3] | apparent KD of MS2 coat protein (input ligand: FMN 200 uM) | apparent KD of MS2 coat protein (input ligand: none) | apparent KD of MS2 coat protein [4] |
| --- | --- | --- | --- | --- | --- | --- |
| GGUUGCGCAGGAUAUACAUGAGGAUCACCCAUGUGAGAGAAAUAAGUGAGGAAGAAAAGUAGAAGGGCGUGACG [Mat - Exclusion 3 - Mod of Salish D72] (puzzle: Exclusion 3) | 170 nM | 37.7 nM | 68.9 nM |  |  |  |
| AAUACAAGCUAUUGAUCCCACAUGAGGAUCACCCAUGUGCCUGGCCGUGAGACAAGGUUUACAAUAGCUCGUCUUAU [Sensor-V1 #46] (Eterna round: R97, puzzle: Sensor, turn-off variant 1) |  |  |  | 46.1 nM | 44.7 nM |  |
| UUAAUUAAUUAUAUAAGAUCACAUGAGGAUCACCCAUGUAUAUAGGAUAUCAGCUCGUUUAGAGCUGAGAAGGAUAUACAAUAU [ExNG3/3-B2] (Eterna round: R96, puzzle: Exclusion NG 3) |  |  |  | 41.8 nM | 209 nM | 497 nM |
| UGUACGCGAGGAUAUACAUGAGGAUCACCCAUGUCAUAUGAAAUGUAAUGAGUAGCGGGUAGAAGGCGCUUUUG [Eternabot (L2) Solution 26] (Eterna round: R97, puzzle: Exclusion 3) |  |  |  | 21.8 nM | 31.3 nM |  |
| CCUCCACAUGAGGAUCACCCAUGUCAGGAUAUCGUGUGCGCGUUUUCGGUCUUUCGCGCGAGAAGGGACGUCUG (puzzle: Exclusion 1) |  | 24 nM |  |  |  |  |
| AAUACAAGCUAUUGAUCCCACAUGAGGAUCACCCAUGUUCCUGGCCGUGAGGCUAGGUAAACAAUAGCUCGUCUUAU [Sensor-V1 #42] (Eterna round: R97, puzzle: Sensor, turn-off variant 1) |  |  |  | 91.2 nM | 99.8 nM |  |
| UGAUUGUUUACCAGGUUAUACAUGAGGAUCACCCAUGUAGAUCCUACGUGCGCGUUAUACCGCUCGUCUUAUUCCCA [Sensor-V1 #77] (Eterna round: R97, puzzle: Sensor, turn-off variant 1) |  |  |  | 19.1 nM | 19.8 nM |  |
| AAAGUUGCCUACGGUGUGCACAUGAGGAUCACCCAUGUACCUCCAUGGCAGUGCCAAUAAUUAUGCUCGUCACUACA [Eternabot (L1) Solution 18] (Eterna round: R97, puzzle: Sensor, turn-off variant 1) |  |  |  | 14.9 nM | 14.2 nM |  |
| GCAGUAUGAGUUAGGAUAUGAUGAUUUAAAAUAAAUCAGAAGGAACUUGAGGAUCACCCAAGUAAAGAAUUGGU [JR_BMEx4_Sub071] (Eterna round: R97, puzzle: Brourd's mod of Exclusion 4) |  |  |  | 25.3 nM | 22.1 nM |  |
| AAUAACAGAGGAUAUACUAUUUUAUGUAUUUAUUAUUUUGAACAUGAGGAUCACCCAUGUAGAAGGCUGAAUAA [JMF 20] (puzzle: Exclusion 2) |  | 19.9 nM |  |  |  |  |
| ACAGUACUGCAAGGAUAUCGUUCUAGUUUAUUACGAGAAGGUGCUUUAGUUAUUUCUUUGUGUUGACAUGAGGAUCACCCAUGU [JR_ExcNG1_Sub055] (Eterna round: R96, puzzle: Exclusion NG 1) |  |  |  | 18.9 nM | 26.4 nM | 17.9 nM |
| CUAAAUCAUGUAGGAUAUGCGUGGCGAAGCUAUGCAGAAGGACAUGAGGAUCACCCAUGUCUUUCCGUCUGCGUACAGACGGAA [JL ENG1 1.19] (Eterna round: R96, puzzle: Exclusion NG 1) |  |  |  | 303 nM | 23.5 nM | 17.3 nM |
| AGUAGGUCUACCUUGGUGGAUCUGCAUAAAGCAAGUGAUACAUGAGGAUCACCCAUGUCCUCAUUUGCUCGUCUUAU [JL turnoff v2 99.21] (puzzle: Sensor v3, turn-off variant 2) | 14 nM | 216 nM | 14.1 nM |  |  |  |
| GCUGCACAUGUAGGAUAUCUGCACGUGUAGUGCAGAGAAGGACAUGAGGAUCACCCAUGUAGAUCAGCAGCAAUUAAUUUAAUU [ENG1/6-A2] (Eterna round: R96, puzzle: Exclusion NG 1) |  |  |  | 150 nM | 242 nM | 273 nM |
| CUAAAUCAUGUAGGAUAUGCGUGGCAAAGCUAUGCAGAAGGACAUGAGGAUCACCCAUGUGCUUCCGUCUGCGUACAGACGGUA [Mat - Exclusion NG 1 - Mod of JL - D21] (Eterna round: R96, puzzle: Exclusion NG 1) |  |  |  | 551 nM | 110 nM | 79.2 nM |
| UGGGUACUCCAUAGAAGAAACAUGAGGAUCACCCAUGUAGGGCAAGUUUUUUGCUCGUCAUAGGUUGAGGGAUUGGA [JR_SV3TOV1_Sub016] (puzzle: Sensor v3, turn-off variant 1) | 685 nM | 343 nM | 978 nM |  |  |  |
| GAAAAGGUAGAGGAUAUUUCAGAUCAAAGCUGCAAAGAAGGCUGCACAUGAGGAUCACCCAUGUGGUCAACAAA [Mod of Quesina 13 - Jieux - Exclusion 6] (Eterna round: R97, puzzle: Exclusion 6) |  |  |  | 66.1 nM | 21.1 nM |  |
